Bridge positions count the residues as written; N and C are the ends. Square brackets hold non-standard residues; d marks the D form. Primed or numbered codes have the meaning given here. Side chains are listed from the residue outwards. Ends that are not written are not given here. * marks the point of attachment. Tyr(3-Cl) = N[C@@H](Cc1ccc(O)c(Cl)c1)C(=O)O; Dip = N[C@H](C(=O)O)C(c1ccccc1)c1ccccc1; Phe(4-NH2) = Nc1ccc(C[C@H](N)C(=O)O)cc1; Gd^T(3) = GdDTPA attached via thiourea; d1Nal = N[C@H](Cc1cccc2ccccc12)C(=O)O; Pen = CC(C)(S)[C@H](N)C(=O)O; Gd^T = not defined here; Gd^T″ = GdDTPA-thiourea; Cbz = O=C(OCc1ccccc1)*; Dap = NC[C@H](N)C(=O)O
B1: SEQ ID NO 169 (peptide)
peptide: QWTCSG[dD]EYTWHCNYE
modifications: disulfide 4-13 (inferred); not fully specified (N-terminus); printed as QWTCSGdEYTWHCNYE
B2: SEQ ID NO 171 (peptide)
peptide: QWTCSGDE[dY]TWHCNYE
modifications: disulfide 4-13 (inferred); not fully specified (N-terminus); printed as QWTCSGDEyTWHCNYE
B3: SEQ ID NO 159 (peptide)
peptide: YHACYQAG[dC]WIW
modifications: disulfide 4-9 (inferred); not fully specified (C-terminus); printed as YHACYQAGcWIW
B4: SEQ ID NO 167 (peptide)
peptide: QWT[dC]SGDEYTWHCNYE
modifications: disulfide 4-13 (inferred); not fully specified (N-terminus, C-terminus); printed as QWTcSGDEYTWHCNYE
B5: SEQ ID NO 174 (peptide)
peptide: QWTCSGDEYTW[dH]CNYE
modifications: disulfide 4-13 (inferred); not fully specified (N-terminus); printed as QWTCSGDEYTWhCNYE

target: rat collagen, acid soluble, type I, rat tail (Upstate 08-115) (rat) (UniProt P02454); experiment: dried collagen assay
Sequence (P02454 152-1207, chain 1 of 2): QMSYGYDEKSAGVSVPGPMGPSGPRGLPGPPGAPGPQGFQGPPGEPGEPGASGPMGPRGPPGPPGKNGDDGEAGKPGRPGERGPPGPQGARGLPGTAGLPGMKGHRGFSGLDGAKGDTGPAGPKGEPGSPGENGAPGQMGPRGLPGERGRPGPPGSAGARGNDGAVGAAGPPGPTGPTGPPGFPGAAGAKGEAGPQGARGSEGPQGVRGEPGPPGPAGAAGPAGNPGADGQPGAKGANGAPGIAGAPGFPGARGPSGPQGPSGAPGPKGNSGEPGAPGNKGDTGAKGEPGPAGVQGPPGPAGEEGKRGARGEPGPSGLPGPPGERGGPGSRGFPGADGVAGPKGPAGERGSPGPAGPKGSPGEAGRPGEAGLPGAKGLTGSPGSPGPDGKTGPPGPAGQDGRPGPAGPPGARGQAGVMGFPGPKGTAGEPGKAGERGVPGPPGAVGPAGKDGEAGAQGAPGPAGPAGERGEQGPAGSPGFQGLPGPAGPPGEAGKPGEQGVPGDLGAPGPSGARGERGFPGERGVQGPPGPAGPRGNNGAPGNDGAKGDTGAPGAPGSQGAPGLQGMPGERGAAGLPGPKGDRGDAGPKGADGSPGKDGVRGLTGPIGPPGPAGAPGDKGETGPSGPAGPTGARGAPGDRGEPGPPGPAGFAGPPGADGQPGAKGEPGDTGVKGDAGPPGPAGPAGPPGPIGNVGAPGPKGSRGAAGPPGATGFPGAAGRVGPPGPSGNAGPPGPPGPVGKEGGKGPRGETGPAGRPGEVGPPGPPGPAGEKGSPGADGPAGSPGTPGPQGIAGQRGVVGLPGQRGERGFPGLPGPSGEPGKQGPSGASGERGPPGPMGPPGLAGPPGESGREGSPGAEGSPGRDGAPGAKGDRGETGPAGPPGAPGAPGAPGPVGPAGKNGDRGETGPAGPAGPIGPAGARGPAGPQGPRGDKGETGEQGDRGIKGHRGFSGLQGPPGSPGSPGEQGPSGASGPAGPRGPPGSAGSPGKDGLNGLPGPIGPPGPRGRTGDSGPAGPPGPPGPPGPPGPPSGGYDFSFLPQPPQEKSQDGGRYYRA
Sequence (P02466 86-1125, chain 2 of 2, further chain): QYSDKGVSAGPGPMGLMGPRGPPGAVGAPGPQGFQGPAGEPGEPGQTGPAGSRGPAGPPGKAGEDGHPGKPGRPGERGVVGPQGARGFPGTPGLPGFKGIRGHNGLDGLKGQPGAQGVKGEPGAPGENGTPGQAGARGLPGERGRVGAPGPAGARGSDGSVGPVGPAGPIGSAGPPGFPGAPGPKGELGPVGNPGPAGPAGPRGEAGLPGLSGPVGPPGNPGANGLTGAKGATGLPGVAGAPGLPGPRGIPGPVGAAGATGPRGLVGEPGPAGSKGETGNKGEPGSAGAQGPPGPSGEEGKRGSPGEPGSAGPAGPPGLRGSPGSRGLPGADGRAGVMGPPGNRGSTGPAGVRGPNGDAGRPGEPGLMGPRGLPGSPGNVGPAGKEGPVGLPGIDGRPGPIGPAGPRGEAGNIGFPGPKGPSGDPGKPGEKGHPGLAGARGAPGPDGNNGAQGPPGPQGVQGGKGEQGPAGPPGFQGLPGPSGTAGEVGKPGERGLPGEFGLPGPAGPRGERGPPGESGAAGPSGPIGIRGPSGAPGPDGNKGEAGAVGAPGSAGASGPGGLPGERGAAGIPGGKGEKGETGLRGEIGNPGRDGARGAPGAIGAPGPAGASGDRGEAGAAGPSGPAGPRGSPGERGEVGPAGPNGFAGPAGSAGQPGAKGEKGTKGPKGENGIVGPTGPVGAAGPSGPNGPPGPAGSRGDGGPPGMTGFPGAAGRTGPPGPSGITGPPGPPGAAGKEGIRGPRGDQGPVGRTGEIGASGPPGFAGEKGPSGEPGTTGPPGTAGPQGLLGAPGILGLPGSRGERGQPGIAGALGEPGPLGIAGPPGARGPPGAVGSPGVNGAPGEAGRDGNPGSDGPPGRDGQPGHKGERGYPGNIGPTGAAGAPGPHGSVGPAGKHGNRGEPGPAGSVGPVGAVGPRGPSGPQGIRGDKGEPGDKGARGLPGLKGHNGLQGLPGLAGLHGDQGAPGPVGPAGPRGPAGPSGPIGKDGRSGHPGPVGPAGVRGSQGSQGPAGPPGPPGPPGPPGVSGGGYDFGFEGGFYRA

Compared with YHACYQAGCYIW (disulfide 4-9 (inferred)) [SEQ ID NO 107], YHACAQAGCWIW (disulfide 4-9 (inferred)) [SEQ ID NO 133] is lower in % bound: 6% for the first, 5% for the second.

Compared with YHACYQAGCWAW (disulfide 4-9 (inferred)) [SEQ ID NO 137], GQWTCSADEYTWHCNYE (disulfide 5-14 (inferred)) [SEQ ID NO 142] is lower in % bound: 7% for the first, 6% for the second.

Going from B1 to B2, the % bound rises from 4% to 6%.

{Gd^T″}-GQWTCSGDEYAWHCNY[dE] (disulfide 5-14 (inferred); not fully specified (C-terminus)) [Compound ID 832] and {Gd^T″}-GQWTCSGDEYTWACNYE (disulfide 5-14 (inferred); not fully specified (C-terminus)) [Compound ID 833] are the same in % bound: 4% for the first, 4% for the second.

Going from {Gd^T″}-DWTCS[dS]DEYTWHCNYE (disulfide 4-13 (inferred); not fully specified (C-terminus)) [Compound ID 836] to {Gd^T}-GQWACSGDEYTWHCNYE (disulfide 5-14 (inferred); not fully specified (C-terminus); reading uncertain) [Compound ID 840], the % bound falls from 8% to 3%.

Going from {Gd^T}-DWTCS[dL]DEYTWHCNYE (disulfide 4-13 (inferred); not fully specified (C-terminus); reading uncertain) [Compound ID 847] to {Gd^T″}-GQWHCTTD[Phe(4-NH2)](Gd^T″)PHHYCLYG (disulfide 5-14 (inferred)) [Compound ID 885], the % bound rises from 7% to 9%.

First: {Gd^T(3)}-GQWHCTTRFPHH[d1Nal]CLYG (disulfide 5-14; not fully specified (C-terminus)) [Compound ID 904]
Second: {Gd^T(3)}-GQWHCTTRFPHHY[Pen]LYG (disulfide 5-14; not fully specified (C-terminus)) [Compound ID 906]
The % bound of the first is lower: 3% for the first, 5% for the second.

First: {Gd^T″}-GQWHCTDRFPHHYCLYG (disulfide 5-14 (inferred)) [Compound ID 936]
Second: Cbz-GQWHCTK(Gd^T″)RFPHHYCLYG (disulfide 5-14 (inferred)) [Compound ID 940]
The % bound of the first is lower: 5% for the first, 8% for the second.

First: {Gd^T″}-GK([Gly-Gd^T″])WHCTTLFPHHVCLYG (disulfide 5-14 (inferred)) [Compound ID 966]
Second: {Gd^T″}-GK([Gly-Gd^T″])WHCTTYFPHHYCL[Dip]G (disulfide 5-14 (inferred); not fully specified) [Compound ID 967]
The % bound of the first is higher: 8% for the first, 4% for the second.

target: human collagen type I, acid soluble, extracted from placenta (Sigma C7774) (human) (UniProt P02452); experiment: dried collagen assay
Sequence (P02452 162-1218 limits assumed, chain 1 of 2): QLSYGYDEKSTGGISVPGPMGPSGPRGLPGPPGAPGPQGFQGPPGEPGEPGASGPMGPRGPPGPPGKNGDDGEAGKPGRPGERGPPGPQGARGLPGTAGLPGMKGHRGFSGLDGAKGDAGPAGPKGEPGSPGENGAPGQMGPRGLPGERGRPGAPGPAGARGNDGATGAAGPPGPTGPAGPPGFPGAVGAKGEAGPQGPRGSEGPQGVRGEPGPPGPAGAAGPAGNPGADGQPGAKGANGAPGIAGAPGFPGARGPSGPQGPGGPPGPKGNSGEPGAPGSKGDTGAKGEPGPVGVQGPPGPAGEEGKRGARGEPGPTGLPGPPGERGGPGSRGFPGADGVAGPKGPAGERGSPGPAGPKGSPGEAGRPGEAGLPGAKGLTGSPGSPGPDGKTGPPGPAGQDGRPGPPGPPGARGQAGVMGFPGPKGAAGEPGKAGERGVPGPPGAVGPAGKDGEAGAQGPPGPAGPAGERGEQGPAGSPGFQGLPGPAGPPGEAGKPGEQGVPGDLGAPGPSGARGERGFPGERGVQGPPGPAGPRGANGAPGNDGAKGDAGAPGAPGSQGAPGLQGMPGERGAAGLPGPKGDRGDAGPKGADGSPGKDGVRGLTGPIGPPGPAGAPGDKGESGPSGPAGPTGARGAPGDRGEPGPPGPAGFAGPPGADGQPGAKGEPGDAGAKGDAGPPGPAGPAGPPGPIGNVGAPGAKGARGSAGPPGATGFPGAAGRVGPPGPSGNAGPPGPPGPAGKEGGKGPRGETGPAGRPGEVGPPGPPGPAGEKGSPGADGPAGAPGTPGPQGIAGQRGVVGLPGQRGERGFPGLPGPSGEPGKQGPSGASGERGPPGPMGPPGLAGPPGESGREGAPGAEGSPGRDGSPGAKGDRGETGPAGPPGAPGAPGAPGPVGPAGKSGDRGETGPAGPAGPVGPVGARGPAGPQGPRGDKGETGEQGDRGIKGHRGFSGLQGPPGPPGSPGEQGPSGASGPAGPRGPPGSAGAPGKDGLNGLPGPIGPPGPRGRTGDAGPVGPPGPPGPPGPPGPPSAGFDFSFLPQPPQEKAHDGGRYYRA
Sequence (P08123 80-1119 limits assumed, chain 2 of 2, further chain): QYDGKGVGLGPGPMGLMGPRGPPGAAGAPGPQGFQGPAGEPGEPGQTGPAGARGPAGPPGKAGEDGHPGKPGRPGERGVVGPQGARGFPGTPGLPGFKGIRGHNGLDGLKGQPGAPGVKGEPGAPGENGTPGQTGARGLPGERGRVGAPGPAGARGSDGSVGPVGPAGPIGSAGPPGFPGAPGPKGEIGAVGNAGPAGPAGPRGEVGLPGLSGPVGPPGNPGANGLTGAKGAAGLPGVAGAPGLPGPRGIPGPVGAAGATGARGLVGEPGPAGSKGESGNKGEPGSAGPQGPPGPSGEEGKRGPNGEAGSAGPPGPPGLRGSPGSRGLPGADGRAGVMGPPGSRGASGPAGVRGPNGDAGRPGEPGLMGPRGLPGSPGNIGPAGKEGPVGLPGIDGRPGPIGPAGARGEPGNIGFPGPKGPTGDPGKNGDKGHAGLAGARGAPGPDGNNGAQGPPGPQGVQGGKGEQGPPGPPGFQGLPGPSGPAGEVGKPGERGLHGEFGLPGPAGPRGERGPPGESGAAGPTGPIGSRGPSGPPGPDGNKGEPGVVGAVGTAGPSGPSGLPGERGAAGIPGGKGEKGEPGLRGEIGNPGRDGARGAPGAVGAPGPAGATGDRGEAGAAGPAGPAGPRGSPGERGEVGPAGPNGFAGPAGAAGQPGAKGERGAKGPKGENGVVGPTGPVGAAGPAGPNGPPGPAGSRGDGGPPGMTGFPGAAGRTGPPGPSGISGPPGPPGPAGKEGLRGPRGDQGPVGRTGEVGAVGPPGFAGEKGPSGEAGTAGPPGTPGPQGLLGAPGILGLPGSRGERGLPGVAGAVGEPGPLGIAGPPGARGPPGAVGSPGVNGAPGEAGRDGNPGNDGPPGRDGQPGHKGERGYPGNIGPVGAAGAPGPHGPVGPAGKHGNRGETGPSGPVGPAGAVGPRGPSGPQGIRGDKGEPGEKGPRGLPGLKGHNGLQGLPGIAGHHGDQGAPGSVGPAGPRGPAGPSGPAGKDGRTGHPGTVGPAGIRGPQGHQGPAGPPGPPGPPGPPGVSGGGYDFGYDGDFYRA

Compared with WQVCADSPGVITYCYTY (disulfide 4-14 (inferred)) [SEQ ID NO 98], AKKCWYNDGGHLRCRTL (disulfide 4-14 (inferred)) [SEQ ID NO 99] is lower in % bound: 5% for the first, 3% for the second.

Compared with YHACYQAGCYIY (disulfide 4-9 (inferred)) [SEQ ID NO 108], FSECVWVNAYQCEYF (disulfide 4-12 (inferred)) [SEQ ID NO 113] is lower in % bound: 5% for the first, 3% for the second.

YHACAQAGCWIW (disulfide 4-9 (inferred)) [SEQ ID NO 133] and YHACYQAGCWAW (disulfide 4-9 (inferred)) [SEQ ID NO 137] are the same in % bound: 4% for the first, 4% for the second.

First: GQWTCSGDEYTAHCNYE (disulfide 5-14 (inferred); not fully specified (C-terminus)) [SEQ ID NO 147]
Second: B3
The % bound of the first is lower: 5% for the first, 7% for the second.

Compared with B4, B5 is higher in % bound: 4% for the first, 5% for the second.

SWSCGGDHNAWKCQYS (disulfide 4-13 (inferred)) [SEQ ID NO 36] and LWNCHGTDANWKCVLN (disulfide 4-13 (inferred)) [SEQ ID NO 37] are the same in % bound: 7% for the first, 7% for the second.

First: {Gd^T″}-GQWHCTTDFPH[Dap]YCLYG (disulfide 5-14) [Compound ID 886]
Second: GWSCHGDAADWPCQWS (disulfide 4-13 (inferred)) [SEQ ID NO 38]
The % bound of the first is higher: 8% for the first, 6% for the second.

Compared with {Gd^T″}-GQWHCTTD[Tyr(3-Cl)]PHHYCLYG (disulfide 5-14 (inferred); not fully specified (C-terminus)) [Compound ID 895], GWQCSGDASVWNCDWI (disulfide 4-13 (inferred)) [SEQ ID NO 39] is lower in % bound: 7% for the first, 6% for the second.

First: {Gd^T″}-GQWHCT[dN]RFPHHYCLYG (disulfide 5-14 (inferred); not fully specified (C-terminus)) [Compound ID 897]
Second: {Gd^T″}-GQWHCT[dS]RFPHHYCLYG (disulfide 5-14 (inferred); not fully specified (C-terminus)) [Compound ID 898]
The % bound of the first is lower: 4% for the first, 5% for the second.

Going from {Gd^T″}-GQWHCT[dR]RFPHHYCLYG (disulfide 5-14 (inferred); not fully specified (C-terminus)) [Compound ID 900] to {Gd^T″}-GQWHCTTRFPHH[dR]CLYG (disulfide 5-14 (inferred); not fully specified (C-terminus)) [Compound ID 902], the % bound rises from 4% to 7%.

Compared with {Gd^T″}-GQWHCTTRFPHH[dT]CLYG (disulfide 5-14 (inferred); not fully specified (C-terminus)) [Compound ID 905], KWECVHTKGEWYCETK (disulfide 4-13 (inferred)) [SEQ ID NO 65] is higher in % bound: 6% for the first, 7% for the second.

Going from RWSCVLDADGWVCSDN (disulfide 4-13 (inferred)) [SEQ ID NO 66] to GWSCHSMDMQWHCDFS (disulfide 4-13 (inferred)) [SEQ ID NO 67], the % bound falls from 6% to 5%.

Going from SWHCFLENHHWMCSDH (disulfide 4-13 (inferred)) [SEQ ID NO 68] to PWWCHEMPSMCFGF (disulfide 4-11 (inferred)) [SEQ ID NO 3], the % bound falls from 5% to 2%.

Going from SWYCNNGSYGQWHCEHR (disulfide 4-14 (inferred)) [SEQ ID NO 80] to QWFCEMDEYGKWNCGMM (disulfide 4-14 (inferred)) [SEQ ID NO 81], the % bound falls from 6% to 3%.

LWTCSMDRNYDWVCGEK (disulfide 4-14 (inferred)) [SEQ ID NO 82] and GWACNTTSKGDWECTNL (disulfide 4-14 (inferred)) [SEQ ID NO 83] are the same in % bound: 3% for the first, 3% for the second.

HWSCDLAMDNEWFCSTK (disulfide 4-14 (inferred)) [SEQ ID NO 84] and GWTCSQPGANVWNCTMQ (disulfide 4-14 (inferred)) [SEQ ID NO 85] are the same in % bound: 3% for the first, 3% for the second.
